Our source for the Peptide exchange values is patent publication US10253076B2, “Peptides and combination of peptides for use in immunotherapy against ovarian cancer and other cancers” (immatics biotechnologies GmbH, priority 2015, dated 2019).

This assay concerns the target HLA-A*02:01 (Homo sapiens, UniProt P04439, D140Y/D185E/D98H/E176V/E277Q/G131W/G231S/I119V/I121R/I166T/I218V/L300P/L318F/N151K/N90K/P208A/P217A/Q86G/Q94H/R138H/R169H/T345S). As to the kind of experiment: MHC binding assay (UV-ligand exchange, beta2m ELISA, peptide exchange yield). The settings on record: binding of HLA-class I restricted peptides to HLA-A*02:01, ranged by peptide exchange yield (UV-ligand exchange, β2m ELISA). The procedure, abridged:
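Peptide–HLA-A*02:01 complexes made by UV-mediated exchange of a photocleavable peptide with the test peptide. Exchange products diluted 100-fold on streptavidin-coated plates, 1 h at 37°C, then HRP anti-β2m 1 h at 37°C; TMB read at 450 nm to give exchange yield.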
On the technique in general: An ELISA detects its analyte on a solid surface through an enzyme-linked reagent.

“198 (KTINKVPTV; listed as Homo sapiens) [compound 198]”: the Peptide exchange entry is given as “″+++″ (≥50% = +++)”. Consider “151 (KILQQLVTL; listed as Homo sapiens) [compound 151]”, for which the Peptide exchange result is “″+++″ (≥50% = +++)”. “106 (LLYDAVHIVSV; listed as Homo sapiens) [compound 106]”: the Peptide exchange result is “″+++″ (≥50% = +++)”. Consider “254 (TLLAFIMEL; listed as Homo sapiens) [compound 254]”, for which the Peptide exchange result is “″+++″ (≥50% = +++)”.

As to “335 (YSLSSVVTV; listed as Homo sapiens) [compound 335]”, the Peptide exchange entry was “″+++″ (≥50% = +++)”. Turning to “16 (VLFQGQASL; listed as Homo sapiens) [compound 16]”, the Peptide exchange result is reported as “″+++″ (≥50% = +++)”. The result for “234 (ALMEDTGRQML; listed as Homo sapiens) [compound 234]” reads “″++″ (≥20% = ++)”. As for “369 (GLFPEHLIDV; listed as Homo sapiens) [compound 369]”, the Peptide exchange result is “″+++″ (≥50% = +++)”. As to “227 (ALMNTLLYL; listed as Homo sapiens) [compound 227]”, the Peptide exchange result is “″++″ (≥20% = ++)”. As for “388 (SLTIDGIRYV; listed as Homo sapiens) [compound 388]”, the Peptide exchange entry is reported as “″+++″ (≥50% = +++)”. For the substance “317 (SLAALVVHV; listed as Homo sapiens) [compound 317]”, the Peptide exchange entry is “″+++″ (≥50% = +++)”.

For “18 (YLVAKLVEV; listed as Homo sapiens) [compound 18]”, the Peptide exchange entry is given as “″++″ (≥20% = ++)”. For “122 (FLLAEDDIYL; listed as Homo sapiens) [compound 122]”, the Peptide exchange entry is recorded as “″+++″ (≥50% = +++)”. As for “589 (KLYPQLPAEI; listed as Homo sapiens) [compound 589]”, the Peptide exchange result is on record as “″+++″ (≥50% = +++)”. On to “186 (TLFFQQNAL; listed as Homo sapiens) [compound 186]”, for which the Peptide exchange entry is “″++″ (≥20% = ++)”.

“333 (FLPDANSSV; listed as Homo sapiens) [compound 333]”: the Peptide exchange result is recorded as “″++″ (≥20% = ++)”. As for “63 (YLLPSGGSVTL; listed as Homo sapiens) [compound 63]”, the Peptide exchange entry is “″++″ (≥20% = ++)”.

Consider “135 (ALSEVDFQL; listed as Homo sapiens) [compound 135]”, for which the Peptide exchange result is given as “″+++″ (≥50% = +++)”. Turning to “14 (AAYGGLNEKSFV; listed as Homo sapiens) [compound 14]”, the Peptide exchange entry was “″+++″ (≥50% = +++)”. On to “177 (YLLPEEYTSTL; listed as Homo sapiens) [compound 177]”, for which the Peptide exchange result is “″++++″ (≥75% = ++++)”.

With “132 (LLVEQPPLAGV; listed as Homo sapiens) [compound 132]”, the Peptide exchange entry is recorded as “″+++″ (≥50% = +++)”. For the substance “605 (KLYEAVPQL; listed as Homo sapiens) [compound 605]”, the Peptide exchange result is “″+++″ (≥50% = +++)”. Turning to “401 (ILLDDTGLAYI; listed as Homo sapiens) [compound 401]”, the Peptide exchange result is “″+++″ (≥50% = +++)”. For “560 (ALWDIETGQQTTT; listed as Homo sapiens) [compound 560]”, the Peptide exchange result was “″+++″ (≥50% = +++)”.

With “622 (RLLGEEVVRVLQA; listed as Homo sapiens) [compound 622]”, the Peptide exchange result was “″+++″ (≥50% = +++)”. As for “336 (ILLTAIVQV; listed as Homo sapiens) [compound 336]”, the Peptide exchange entry is on record as “″+++″ (≥50% = +++)”. “609 (ALWKQLLEL; listed as Homo sapiens) [compound 609]”: the Peptide exchange result is given as “″+++″ (≥50% = +++)”. Consider “354 (LILEGVDTV; listed as Homo sapiens) [compound 354]”, for which the Peptide exchange result is reported as “″++″ (≥20% = ++)”. “275 (YLVYILNEL; listed as Homo sapiens) [compound 275]”: the Peptide exchange result is reported as “″++″ (≥20% = ++)”.

In the case of “276 (ALFTFSPLTV; listed as Homo sapiens) [compound 276]”, the Peptide exchange result is “″+++″ (≥50% = +++)”.

Turning to “152 (ILFEDIFDV; listed as Homo sapiens) [compound 152]”, the Peptide exchange entry was “″+++″ (≥50% = +++)”. Take “551 (KLYESLLPFA; listed as Homo sapiens) [compound 551]”: the Peptide exchange entry is on record as “″+++″ (≥50% = +++)”. Turning to “542 (RVWDISTVSSV; listed as Homo sapiens) [compound 542]”, the Peptide exchange entry is “″+++″ (≥50% = +++)”. With “289 (VLLEIEDLQV; listed as Homo sapiens) [compound 289]”, the Peptide exchange entry is “″++++″ (≥75% = ++++)”. The entry for “237 (ALLEASGTLLL; listed as Homo sapiens) [compound 237]” is “″++++″ (≥75% = ++++)”. Take “519 (GLLHLTLLL; listed as Homo sapiens) [compound 519]”: the Peptide exchange entry was “″+++″ (≥50% = +++)”. With “348 (ILLDVKTRL; listed as Homo sapiens) [compound 348]”, the Peptide exchange result is “″++++″ (≥75% = ++++)”. For “327 (GLAPFTEGISFV; listed as Homo sapiens) [compound 327]”, the Peptide exchange result was “″+++″ (≥50% = +++)”. On to “255 (VLASYNLTV; listed as Homo sapiens) [compound 255]”, for which the Peptide exchange entry is on record as “″+++″ (≥50% = +++)”. For “358 (ALDEYTSEL; listed as Homo sapiens) [compound 358]”, the Peptide exchange entry is on record as “″++++″ (≥75% = ++++)”. The result for “390 (ALFMKQIYL; listed as Homo sapiens) [compound 390]” reads “″+++″ (≥50% = +++)”. Turning to “510 (KLYSVVSQL; listed as Homo sapiens) [compound 510]”, the Peptide exchange entry is “″++″ (≥20% = ++)”. Take “87 (ALPEAPAPLLPHIT; listed as Homo sapiens) [compound 87]”: the Peptide exchange entry is listed as “″++″ (≥20% = ++)”. The entry for “193 (QLLDADGFLNV; listed as Homo sapiens) [compound 193]” is “″+++″ (≥50% = +++)”; for “295 (VLDRESPNV; listed as Homo sapiens) [compound 295]” it is “″+++″ (≥50% = +++)”; for “484 (SLIEKVTQL; listed as Homo sapiens) [compound 484]” it is “″+++″ (≥50% = +++)”. On to “287 (FLNEFFLNV; listed as Homo sapiens) [compound 287]”, for which the Peptide exchange result is given as “″+++″ (≥50% = +++)”. “372 (TMLLNIPLV; listed as Homo sapiens) [compound 372]”: the Peptide exchange entry is given as “″++″ (≥20% = ++)”.

With “602 (YLLEQIKLIEV; listed as Homo sapiens) [compound 602]”, the Peptide exchange entry is listed as “″++++″ (≥75% = ++++)”. “356 (KLLGKLPEL; listed as Homo sapiens) [compound 356]”: the Peptide exchange entry is “″+++″ (≥50% = +++)”. For “220 (LLQKFVPEI; listed as Homo sapiens) [compound 220]”, the Peptide exchange result is reported as “″++″ (≥20% = ++)”. On to “370 (SLLQDLVSV; listed as Homo sapiens) [compound 370]”, for which the Peptide exchange result is on record as “″+++″ (≥50% = +++)”. “439 (YLLQEIYGI; listed as Homo sapiens) [compound 439]”: the Peptide exchange entry was “″+++″ (≥50% = +++)”. Take “30 (LILDWVPYI; listed as Homo sapiens) [compound 30]”: the Peptide exchange entry was “″+++″ (≥50% = +++)”.

Consider “606 (ALWETEVYI; listed as Homo sapiens) [compound 606]”, for which the Peptide exchange result is listed as “″+++″ (≥50% = +++)”. With “111 (YVWGFYPAEV; listed as Homo sapiens) [compound 111]”, the Peptide exchange entry is on record as “″+++″ (≥50% = +++)”. The entry for “574 (YLLQEPPRTV; listed as Homo sapiens) [compound 574]” is “″++″ (≥20% = ++)”. The result for “344 (YLQDQHLLLTV; listed as Homo sapiens) [compound 344]” reads “″+++″ (≥50% = +++)”. “476 (ALMERTGYSMV; listed as Homo sapiens) [compound 476]”: the Peptide exchange entry is “″+++″ (≥50% = +++)”. As to “73 (NIFDLQIYV; listed as Homo sapiens) [compound 73]”, the Peptide exchange entry is recorded as “″+++″ (≥50% = +++)”.

For “591 (SMAELDIKL; listed as Homo sapiens) [compound 591]”, the Peptide exchange result is listed as “″+++″ (≥50% = +++)”.

“99 (ALVSKGLATV; listed as Homo sapiens) [compound 99]”: the Peptide exchange entry is “″++″ (≥20% = ++)”. In the case of “200 (LLFGSVQEV; listed as Homo sapiens) [compound 200]”, the Peptide exchange entry is given as “″+++″ (≥50% = +++)”. For the substance “270 (LLLDEEGTFSL; listed as Homo sapiens) [compound 270]”, the Peptide exchange entry is reported as “″++″ (≥20% = ++)”. “513 (SLWPSPEQL; listed as Homo sapiens) [compound 513]”: the Peptide exchange entry is “″++″ (≥20% = ++)”.

Consider “374 (FLLQQHLISA; listed as Homo sapiens) [compound 374]”, for which the Peptide exchange entry is recorded as “″++″ (≥20% = ++)”. “500 (SLMEDQVLQL; listed as Homo sapiens) [compound 500]”: the Peptide exchange result was “″+++″ (≥50% = +++)”. With “82 (FLSSVTYNL; listed as Homo sapiens) [compound 82]”, the Peptide exchange result is “″+++″ (≥50% = +++)”. Consider “479 (SLFGNSGILENV; listed as Homo sapiens) [compound 479]”, for which the Peptide exchange entry is reported as “″+++″ (≥50% = +++)”. In the case of “35 (KINDTIYEV; listed as Homo sapiens) [compound 35]”, the Peptide exchange entry is given as “″+++″ (≥50% = +++)”.
